Source: patent US20170204182A1 (published 2017)
Positions count from the first letter of the chain named.

B1: Rb86 HC 001_IGHV3_23_04 / LC Rb86 (antibody, V domains shown)
VH: QQLVESGGGLVQPGGSLRLSCAASGFSLSSNAINWVRQAPGKGLEWVGYIAVSGNTYYASWAKGRFTISRDNSKNTLYLQMNSLRAEDTAVYYCGKSNIWGQGTLVTVSS
VL: AQVLTQTTSPVSAAVGSTVTISCQSSQSVRTNKLAWFQQKPGQPPKRLIYSASTLDFGVPSRFSASGSGTQFTLTISDVQCDDAATYYCLGYFDCSIADCVAFGGGTEVVVK
B2: Rb86 HC 001_IGHV3_23_04 / LC 013--IMGT_hVK_1_17 (antibody, V domains shown)
VH: B1 VH
VL: DIQMTQSTSSLSASVGDRVTITCRASQGVRTNKLAWFQQKPGQPPKRLIYSASTLQSGVPSRFSGSGSGTEFTLTISSLQPEDFATYYCLGYFDCSIADCVAFGGGTKVEIK
B3: Rb86 HC 002--IMGT_hVH_3_23 / LC Rb86 (antibody, V domains shown)
VH: B1 VH with Q2S, L3V, V4L, Q102P
VL: B1 VL
B4: Rb86 HC 001_IGHV3_23_04 / LC 012--IMGT_hVK_1_17 (antibody, V domains shown)
VH: B1 VH
VL: B2 VL with T8P
B5: Rb86 variant: HC 001_IGHV3_23_04 / LC 004--IMGT_hVK_4_1 (antibody, V domains shown)
VH: B1 VH
VL: DIVMTQSPDSLAVSLGERATINCKSSQSVRTNKLAWFQQKPGQPPKRLIYSASTLDSGVPDRFSGSGSGTDFTLTISSLQAEDVAVYYCLGYFDCSIADCVAFGGGTKVEIK
B6: Rb86 variant: HC 002--IMGT_hVH_3_23 / LC Rb86 (antibody, V domains shown)
VH: B1 VH with Q2S, L3V, V4L, Q102P
VL: B1 VL
B7: Rb86 variant: HC 001_IGHV3_23_04 / LC 006--IMGT_hVK_7_3 (antibody, V domains shown)
VH: B1 VH
VL: DIVLTQSPASLAVSPGQRATITCQSSQSVRTNKLAWFQQKPGQPPKRLIYSASTLDFGVPARFSGSGSGTDFTLTINPVEANDTANYYCLGYFDCSIADCVAFGGGTKVEIK
B8: Rb86 variant: HC 001_IGHV3_23_04 / LC 001--IMGT_hVK_1_5 (antibody, V domains shown)
VH: B1 VH
VL: B2 VL with S10T, R24Q, A25S, G28S, Q43K, P44A, Q56D, S57F, E82D
B9: Rb86 variant: HC 001_IGHV3_23_04 / LC 012--IMGT_hVK_1_17 (antibody, V domains shown)
VH: B1 VH
VL: B2 VL with T8P
B10: Rb86 variant: HC 001_IGHV3_23_04 / LC 015--IMGT_hVK_1_17 (antibody, V domains shown)
VH: B1 VH
VL: B2 VL with T8P, C95S, C100S
B11: Rb86 HC 001_IGHV3_23_04 / LC 002--IMGT_hVK_4_1 (antibody, V domains shown)
VH: B1 VH
VL: B5 VL with D1A, I2Q
B12: Rb86 variant: HC 001_IGHV3_23_04 / LC 013--IMGT_hVK_1_17 (antibody, V domains shown)
VH: B1 VH
VL: B2 VL
B13: Rb86 HC 001_IGHV3_23_04 / LC 017--IMGT_hVK_1_17 (antibody, V domains shown)
VH: B1 VH
VL: B2 VL with T8P, A25S, G28S, Q56D, S57F
B14: Rb86 HC 001_IGHV3_23_04 / LC 004--IMGT_hVK_4_1 (antibody, V domains shown)
VH: B1 VH
VL: B5 VL
B15: Rb86 variant: HC 001_IGHV3_23_04 / LC 014--IMGT_hVK_1_17 (antibody, V domains shown)
VH: B1 VH
VL: B2 VL with T8P, P81S
B16: Rb86 HC 001_IGHV3_23_04 / LC 005--IMGT_hVK_4_1 (antibody, V domains shown)
VH: B1 VH
VL: B5 VL with C95S, C100S
B17: Rb86 HC 001_IGHV3_23_04 / LC 010--IMGT_hVK_1_17 (antibody, V domains shown)
VH: B1 VH
VL: B2 VL with T8P, A35G, F37Y, Q43K, P44A
B18: Rb86 variant: HC 001_IGHV3_23_04 / LC 003--IMGT_hVK_4_1 (antibody, V domains shown)
VH: B1 VH
VL: B5 VL with D1A, I2Q, K108E, E110V, I111V
B19: Rb86 HC 001_IGHV3_23_04 / LC 015--IMGT_hVK_1_17 (antibody, V domains shown)
VH: B1 VH
VL: B2 VL with T8P, C95S, C100S
B20: Rb86 HC 001_IGHV3_23_04 / LC 003--IMGT_hVK_4_1 (antibody, V domains shown)
VH: B1 VH
VL: B5 VL with D1A, I2Q, K108E, E110V, I111V
B21: Rb86 variant: HC 001_IGHV3_23_04 / LC 017--IMGT_hVK_1_17 (antibody, V domains shown)
VH: B1 VH
VL: B2 VL with T8P, A25S, G28S, Q56D, S57F
B22: Rb86 HC 001_IGHV3_23_04 / LC 006--IMGT_hVK_7_3 (antibody, V domains shown)
VH: B1 VH
VL: B7 VL
B23: Rb86 variant: HC 001_IGHV3_23_04 / LC 005--IMGT_hVK_4_1 (antibody, V domains shown)
VH: B1 VH
VL: B5 VL with C95S, C100S
B24: Rb86 HC 001_IGHV3_23_04 / LC 001--IMGT_hVK_1_5 (antibody, V domains shown)
VH: B1 VH
VL: B2 VL with S10T, R24Q, A25S, G28S, Q43K, P44A, Q56D, S57F, E82D
B25: Rb86 HC 001_IGHV3_23_04 / LC 014--IMGT_hVK_1_17 (antibody, V domains shown)
VH: B1 VH
VL: B2 VL with T8P, P81S
B26: Rb86 variant: HC 001_IGHV3_23_04 / LC 002--IMGT_hVK_4_1 (antibody, V domains shown)
VH: B1 VH
VL: B5 VL with D1A, I2Q
B27: Rb86 variant: HC 001_IGHV3_23_04 / LC Rb86 (antibody, V domains shown)
VH: B1 VH
VL: B1 VL
B28: CD81K04 HC CD81K04 / LC CD81K04 (antibody, V domains shown)
VH: QVQLQQSGPELVKPGASVKISCKASGYTFSSSWMNWVKQRPGKGLEWIGRIYSGDGDAIYNGKFKGKATLTADKSSSTAYMQLSSLTSEDSAVYFCAREGKTGDLLLRSWGQGSALTVSS
VL: DIVLTQSPASLSVSLGQRATISCRASKSVSTSIYSYMHWYQQKPGQPPKLLIKYASYLESGVPARFSGSGSGTDFTLNIHPVEEEDAATYYCEHSREFPFTFGTGTKLEIK
notes: chimeric form of murine CD81K04
B29: CD81K04 HC K04_JA-13-hVH_1_3 / LC CD81K04 (antibody, V domains shown)
VH: QVQLVQSGAEVKKPGASVKVSCKASGYTFSSSWMNWVRQAPGQRLEWMGRIYSGDGDAIYNGKFKGRVTITRDTSASTAYMELSSLRSEDTAVYYCAREGKTGDLLLRSWGQGTLVTVSS
VL: B28 VL
B30: Rb86 HC Rb86 / LC 014--IMGT_hVK_1_17 (antibody, V domains shown)
VH: QSVEESGGRLVTPGTPLTLTCTVSGFSLSSNAINWVRQAPGKGLEWIGYIAVSGNTYYASWAKGRFTISKASTTVDLKMTSPTAEDTGTYFCGKSNIWGPGTLVTVSL
VL: B2 VL with T8P, P81S
B31: Rb86 variant: HC Rb86 / LC 012--IMGT_hVK_1_17 (antibody, V domains shown)
VH: B30 VH
VL: B2 VL with T8P
B32: Rb86 variant: HC Rb86 / LC 017--IMGT_hVK_1_17 (antibody, V domains shown)
VH: B30 VH
VL: B2 VL with T8P, A25S, G28S, Q56D, S57F

What was measured:
[1] = molecular target: T1, phosphorylated human tau protein (human, UniProt P10636-8 1-441, limits assumed, S422 phosphorylation); test: SPR BIAcore
T1 construct: also called pTau
T1 sequence (P10636 other isoform, or with tags, fused parts or gaps limits assumed): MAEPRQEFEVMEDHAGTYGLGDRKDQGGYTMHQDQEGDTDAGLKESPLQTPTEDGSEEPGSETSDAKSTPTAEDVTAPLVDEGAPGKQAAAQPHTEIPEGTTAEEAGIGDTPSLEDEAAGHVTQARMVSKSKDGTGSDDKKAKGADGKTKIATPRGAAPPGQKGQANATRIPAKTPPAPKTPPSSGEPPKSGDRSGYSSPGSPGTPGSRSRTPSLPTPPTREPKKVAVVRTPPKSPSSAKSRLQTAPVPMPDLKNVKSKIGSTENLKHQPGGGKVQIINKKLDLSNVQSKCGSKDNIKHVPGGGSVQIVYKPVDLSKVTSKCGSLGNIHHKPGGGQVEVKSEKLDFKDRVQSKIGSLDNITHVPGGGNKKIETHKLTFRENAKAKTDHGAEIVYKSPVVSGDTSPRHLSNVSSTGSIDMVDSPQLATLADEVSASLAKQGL

[2] = molecular target: T2, phosphorylated human tau protein (human, UniProt P10636-8 1-441, limits assumed, S422 phosphorylation); test: SPR (BIAcore), captured antibody
T2 construct: also called pTau
T2 sequence (P10636 other isoform, or with tags, fused parts or gaps limits assumed): as above

[3] = molecular target: T3, CD81 (UniProt P60033 1-236, limits assumed); test: cell ELISA
T3 construct: whole, on cells; also called CD81 receptor
T3 sequence (looked up): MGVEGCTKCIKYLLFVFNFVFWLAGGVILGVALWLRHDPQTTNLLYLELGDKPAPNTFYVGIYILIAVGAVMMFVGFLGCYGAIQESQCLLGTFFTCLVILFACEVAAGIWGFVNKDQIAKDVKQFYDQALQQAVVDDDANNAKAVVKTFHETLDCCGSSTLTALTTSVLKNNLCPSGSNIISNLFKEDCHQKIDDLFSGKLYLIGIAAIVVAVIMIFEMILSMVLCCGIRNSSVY
Protocol: For the binding cell ELISA assay, HuH7-Rluc-H3 (positive cell line expressing CD81) and HuH7-Rluc-L1 (negative control cell line) were propagated in F-12 DMEM medium with 10% FCS at 37° C. and 5% CO₂. On day 1, the cells were trypsinized at approximately 90% confluence and resuspended at 4×10⁵ cells/mL. […] On day 2, the antibody samples to be tested were prepared in a separate polypropylene round bottom plate with a twofold desired concentration with a final volume of 120 μl. All of the assay samples were diluted in cell culture medium. […] After fixation, each well was washed 3 times with 200 μL PBS/0.05% Tween. The secondary incubation step for detection of bound anti-CD81 antibodies was performed for 2 h at room temperature on a reciprocal shaker. […] Each well was washed three times with 200 PBS/0.05% Tween to remove unbound antibodies. […] The absorbance was read using the ELISA Tecan reader at 450 nm with 620 nm reference wavelength.

Binder	BL [1] [RU]	half-life (t1/2) [2] [min]	also measured
B1	197		
B2	90.9		
B3	225		
B4	92.2		
B5		3.44	
B6		8.41	
B7		4.38	
B8		3.41	
B9		4.67	
B10		3.02	
B11	108		
B12		5.65	
B13	91.1		
B14	59.2		
B15		5.08	
B16	62.9		

Binder	BL [1] [RU]	half-life (t1/2) [2] [min]	also measured
B17	-4.7		
B18		4.76	
B19	63.6		
B20	102		
B21		5.26	
B22	97.9		
B23		1.71	
B24	101		
B25	96.2		
B26		5.36	
B27		12.7	
B28			ELISA absorbance [3]: 1.14
B29			ELISA absorbance [3]: 0.975
B30	150		
B31		15.9	
B32		23.2	
